From WO2009147196A1

Assays:
EYFP-Rev (HIV-1) [1] = biological target: EYFP-Rev (HIV-1) (UniProt P04618); test: FRET Rev-multimerization assay, purified proteins mixed
EYFP-Rev (HIV-1) [2] = biological target: EYFP-Rev (HIV-1) (UniProt P04618); test: FRET Rev-multimerization assay, negative control ECFP + EYFP-Rev

Chain of EYFP-Rev (HIV-1) (P04618 whole entry): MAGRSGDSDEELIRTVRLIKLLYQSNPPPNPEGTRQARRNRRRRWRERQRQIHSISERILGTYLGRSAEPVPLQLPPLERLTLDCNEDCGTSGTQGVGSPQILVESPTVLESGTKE

Substance | FRET efficiency (EYFP-Rev (HIV-1) [1]) [%] | FRET efficiency (EYFP-Rev (HIV-1) [2]) [%]
ECFP-Rev (from UniProt P04618 1-116) | 20 to 35 | –
free ECFP | – | 1.6
